Starred links: 1 amine or outer side, 2 acyl side, 3 side chain; linkers in the order of their positions; H or OH if unused. Positions of bridges follow the written chain, without caps; N, C: chain ends. Non-standard residues stand in square brackets, D forms with d. No end group written: not given here. X1 = 3‑(7-(3-acetamidophenyl)-1H-indol-3-yl)‑2‑aminopropanoic acid, CC(=O)Nc1cccc(-c2cccc3c(CC(N[*:1])C(=O)[*:2])c[nH]c23)c1; AEF(G) = 2-amino-3-(4-(2-guanidinoethoxy)phenyl)propanoic acid, N=C(N)NCCOc1ccc(C[C@H](N[*:1])C(=O)[*:2])cc1; X10 = 2‑amino‑3‑(4-(2-guanidinoethoxy)phenyl)propanoic acid, N=C(N)NCCOc1ccc(CC(N[*:1])C(=O)[*:2])cc1; X7 = 2‑amino‑3‑(5-methylpyridin-3-yl)propanoic acid, Cc1cncc(CC(N[*:1])C(=O)[*:2])c1; 2Nal(6-OH) = N[C@@H](Cc1ccc2cc(O)ccc2c1)C(=O)O; Trp(7-Me) = Cc1cccc2c(C[C@H](N)C(=O)O)c[nH]c12; d(hLys(Me3)) = C[N+](C)(C)CCCCC[C@@H](N)C(=O)O; AEF = NCCOc1ccc(C[C@H](N)C(=O)O)cc1; 3Pal = N[C@@H](Cc1cccnc1)C(=O)O; Lipidated = not defined here; NMeK = CN[C@@H](CCCCN)C(=O)O; Pen = CC(C)(S)[C@H](N)C(=O)O; αMeC = C[C@](N)(CS)C(=O)O; lipid = not defined here; Thp = NC1(C(=O)O)CCOCC1; Abu = CC[C@H](N)C(=O)O; PEG = not defined here; Ava = NCCCCC(=O)O; Sar = CNCC(=O)O
T1: interleukin-23 receptor (IL-23R), Q5VWK5
T1 chain: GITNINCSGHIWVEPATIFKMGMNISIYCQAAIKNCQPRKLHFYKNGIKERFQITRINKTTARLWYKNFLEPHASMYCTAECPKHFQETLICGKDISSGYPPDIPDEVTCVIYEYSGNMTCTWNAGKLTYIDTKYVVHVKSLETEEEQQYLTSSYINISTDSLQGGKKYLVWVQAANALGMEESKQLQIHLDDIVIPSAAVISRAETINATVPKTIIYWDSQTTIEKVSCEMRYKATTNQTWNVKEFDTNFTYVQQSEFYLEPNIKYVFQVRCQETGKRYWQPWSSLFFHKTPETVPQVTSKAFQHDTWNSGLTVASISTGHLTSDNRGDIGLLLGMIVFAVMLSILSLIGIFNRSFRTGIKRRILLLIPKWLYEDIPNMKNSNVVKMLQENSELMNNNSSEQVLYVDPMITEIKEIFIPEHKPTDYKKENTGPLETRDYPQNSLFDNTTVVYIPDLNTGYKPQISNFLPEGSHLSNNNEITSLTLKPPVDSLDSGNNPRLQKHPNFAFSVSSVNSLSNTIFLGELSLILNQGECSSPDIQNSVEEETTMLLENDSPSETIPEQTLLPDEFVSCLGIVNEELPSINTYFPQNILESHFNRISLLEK


Molecular target: T1, interleukin-23 receptor (IL-23R), Q5VWK5
Assay: cell-based or functional assay

| Binder | IL23R Reporter Assay IC50 | PBMC pSTAT3 IC50 |
| --- | --- | --- |
| [Pen]NT[Trp(7-Me)]K(Ac)[Pen][2‑amino‑3‑(4-(2-aminoethoxy)phenyl)propanoic acid][2‑amino‑3‑(6-hydroxynaphthalen-2-yl)propanoic acid][Thp]K(lipid)N[3Pal][Sar] (disulfide 1-6 (inferred); ends not checked; also: K10 lipidated, lipid not given here) [SEQ ID NO: 177] | > 100 nM | > 1 nM |
| [(R)‑3‑carboxy‑2‑(4-(((R)-5-carboxy-5-hydrazineylpentyl)amino)-4-oxobutanamido)‑N,N,N‑trimethylpropan‑1‑aminium][Pen]NT[Trp(7-Me)]K(Ac)[Pen][2‑amino‑3‑(4-(2-aminoethoxy)phenyl)propanoic acid][2‑amino‑3‑(6-hydroxynaphthalen-2-yl)propanoic acid][Thp]EN[3Pal][NMeK](lipid) (disulfide 2-7 (inferred); ends not checked; also: X14: lipidated N-methyl-lysine, lipid and methyl place not given here) [SEQ ID NO: 167] | > 100 nM | < 1 nM |
| R[Pen]NT[Trp(7-Me)]K(Ac)[Pen][AEF(G)][2Nal(6-OH)][Thp]EN[3Pal][Sar] (ends and bridges not checked) [SEQ ID NO: 32] | < 10 nM | < 10 pM |
| R[Pen]ET[X1]K(Ac)[Pen][2‑amino‑3‑(4-(2-aminoethoxy)phenyl)propanoic acid][2‑amino‑3‑(6-hydroxynaphthalen-2-yl)propanoic acid][Thp]EN[3Pal][Sar] (disulfide 2-7 (inferred); ends not checked) [SEQ ID NO: 158] | < 10 nM | < 10 pM |
| [Pen]NT[Trp(7-Me)]K(Ac)[Pen][X10][2Nal(6-OH)][Thp]EN[3Pal][Sar] (ends and bridges not checked) [SEQ ID NO: 24] | < 10 nM | < 0.1 nM |
| [Pen]NT[Trp(7-Me)]K(Lipidated)[Pen][2‑amino‑3‑(4-(2-aminoethoxy)phenyl)propanoic acid][2‑amino‑3‑(6-hydroxynaphthalen-2-yl)propanoic acid][Thp]K(Ac)N[3Pal][Sar] (disulfide 1-6 (inferred); ends not checked; also: K5 lipidated lysine, lipid not given here) [SEQ ID NO: 188] | > 100 nM | < 1 nM |
| [Pen]NT[Trp(7-Me)]K(Ac)[Pen][AEF][2Nal(6-OH)][Thp]EN[3Pal][Sar] (ends and bridges not checked) [SEQ ID NO: 3] | < 10 nM | – |
| [(R)‑3‑carboxy‑2‑(4-(((R)-5-carboxy-5-hydrazineylpentyl)amino)-4-oxobutanamido)‑N,N,N‑trimethylpropan‑1‑aminium][Pen]NT[Trp(7-Me)]K(Ac)[Pen][2‑amino‑3‑(4-(2-aminoethoxy)phenyl)propanoic acid][2‑amino‑3‑(6-hydroxynaphthalen-2-yl)propanoic acid][Thp]EN[3Pal][NMeK](lipid) (disulfide 2-7 (inferred); not fully specified; ends not checked) [SEQ ID NO: 168] | > 100 nM | < 1 nM |
| [Pen]NT[Trp(7-Me)]K(Lipidated)[Pen][2‑amino‑3‑(4-(2-aminoethoxy)phenyl)propanoic acid][2‑amino‑3‑(6-hydroxynaphthalen-2-yl)propanoic acid][Thp]K(Ac)N[3Pal][Sar] (disulfide 1-6 (inferred); ends not checked; also: K5 lipidated lysine, lipid not given here) [SEQ ID NO: 189] | > 100 nM | < 1 nM |
| [d(hLys(Me3))][Pen]NT[Trp(7-Me)]K(Lipidated)[Pen][2‑amino‑3‑(4-(2-aminoethoxy)phenyl)propanoic acid][2‑amino‑3‑(6-hydroxynaphthalen-2-yl)propanoic acid][Thp]K(Ac)N[3Pal][Sar] (disulfide 2-7 (inferred); ends not checked; also: K6 lipidated lysine, lipid not given here) [SEQ ID NO: 187] | > 100 nM | < 1 nM |
| R[Pen]NT[Trp(7-Me)]K(Ac)[Pen][2‑amino‑3‑(4-(2-aminoethoxy)phenyl)propanoic acid][2‑amino‑3‑(6-hydroxynaphthalen-2-yl)propanoic acid][Thp]K(Ac)N[3Pal][Sar] (disulfide 2-7 (inferred); ends not checked) [SEQ ID NO: 219] | < 10 nM | < 0.1 nM |
| [Ava][Abu]NT[Trp(7-Me)]K(Ac)C[2‑amino‑3‑(4-(2-aminoethoxy)phenyl)propanoic acid][2‑amino‑3‑(6-hydroxynaphthalen-2-yl)propanoic acid][Thp]EN[3Pal][Sar] (ends and bridges not checked) [SEQ ID NO: 171] | < 10 nM | < 10 pM |
| R[Pen]NT[Trp(7-Me)]K(Ac)[Pen][2‑amino‑3‑(4-(2-aminoethoxy)phenyl)propanoic acid][2‑amino‑3‑(6-hydroxynaphthalen-2-yl)propanoic acid][Thp]K(Ac)N[3Pal][Sar]K(lipid) (disulfide 2-7 (inferred); ends not checked; also: Lys15 lipidated, lipid not given here) [SEQ ID NO: 222] | > 100 nM | > 1 nM |
| [Pen]NT[X1]K(Ac)[Pen][5‑(4-(2-amino-2-carboxyethyl)phenoxy)‑N,N,N‑trimethylpentan‑1‑aminium][2‑amino‑3‑(6-hydroxynaphthalen-2-yl)propanoic acid][Thp]EN[X7][Sar] (ends and bridges not checked) [SEQ ID NO: 22] | < 10 nM | < 10 pM |
| [Pen]NT[Trp(7-Me)]K(lipid)[Pen][5‑(4-(2-amino-2-carboxyethyl)phenoxy)‑N,N,N‑trimethylpentan‑1‑aminium][2‑amino‑3‑(6-hydroxynaphthalen-2-yl)propanoic acid][Thp]K(Ac)N[3Pal][Sar] (disulfide 1-6 (inferred); ends not checked; also: K5 lipidated lysine, lipid not given here) [SEQ ID NO: 183] | > 100 nM | < 1 nM |
| R[Abu]NTWK(Ac)[αMeC][AEF][2Nal(6-OH)][Thp]K(Ac)N[3Pal][Sar] (ends and bridges not checked) [SEQ ID NO: 29] | < 10 nM | < 0.1 nM |
| [Pen]NT[Trp(7-Me)]K(Lipidated)[Pen][2‑amino‑3‑(4-(2-aminoethoxy)phenyl)propanoic acid][2‑amino‑3‑(6-hydroxynaphthalen-2-yl)propanoic acid][Thp]K(PEG)N[3Pal][Sar] (disulfide 1-6 (inferred); ends not checked; also: lipid structure not given here, PEG size not given here) [SEQ ID NO: 200] | > 100 nM | < 1 nM |
| [Pen]NT[Trp(7-Me)]K(lipid)[Pen][2‑amino‑3‑(4-(2-aminoethoxy)phenyl)propanoic acid][2‑amino‑3‑(6-hydroxynaphthalen-2-yl)propanoic acid][Thp]K(Ac)N[3Pal][Sar] (disulfide 1-6 (inferred); ends not checked; also: K5 lipidated, lipid not given here) [SEQ ID NO: 178] | > 100 nM | > 1 nM |
| [Ava][Abu]NTWQC[2‑amino‑3‑(4-(2-aminoethoxy)phenyl)propanoic acid][2‑amino‑3‑(6-hydroxynaphthalen-2-yl)propanoic acid][Thp]EN[3Pal][Sar] (ends and bridges not checked) [SEQ ID NO: 172] | < 10 nM | < 10 pM |
| R[Abu]NTWK(Ac)[αMeC][AEF][2Nal(6-OH)][Thp]K(Ac)N[3Pal][Sar] (ends and bridges not checked) [SEQ ID NO: 28] | < 10 nM | – |

From US20240279281A1, “Peptide Inhibitors of Interleukin-23 Receptor” (Janssen Pharmaceutica NV, priority 2023, published 2024)
